T1: Bcl-w, biotinylated (C-terminal avi-6His) (human, UniProt Q92843 1-193, biotin (enzymatic, BirA))
T1 chain: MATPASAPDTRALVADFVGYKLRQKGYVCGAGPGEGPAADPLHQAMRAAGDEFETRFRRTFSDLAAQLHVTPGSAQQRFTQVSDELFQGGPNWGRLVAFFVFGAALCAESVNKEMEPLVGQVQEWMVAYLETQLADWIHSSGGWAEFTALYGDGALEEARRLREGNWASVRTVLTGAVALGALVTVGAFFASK

T2: Mcl-1, biotinylated (C-terminal avi-6His) (human, UniProt Q07820 1-350, biotin (enzymatic, BirA))
T2 chain: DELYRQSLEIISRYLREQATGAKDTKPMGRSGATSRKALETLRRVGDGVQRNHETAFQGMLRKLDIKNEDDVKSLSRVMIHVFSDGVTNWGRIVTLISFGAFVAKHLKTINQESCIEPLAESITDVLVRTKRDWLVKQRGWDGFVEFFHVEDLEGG

T3: Bfl-1, biotinylated (C-terminal avi-6His) (human, UniProt Q16548 1-175, biotin (enzymatic, BirA))
T3 chain: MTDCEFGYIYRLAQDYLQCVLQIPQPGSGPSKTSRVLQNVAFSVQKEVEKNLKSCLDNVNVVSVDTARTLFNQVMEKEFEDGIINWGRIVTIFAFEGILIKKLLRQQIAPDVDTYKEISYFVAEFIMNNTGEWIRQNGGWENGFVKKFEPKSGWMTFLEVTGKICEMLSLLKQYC

T4: Bcl-B, biotinylated (C-terminal avi-6His) (human, UniProt Q9HD36 1-204, biotin (enzymatic, BirA))
T4 chain: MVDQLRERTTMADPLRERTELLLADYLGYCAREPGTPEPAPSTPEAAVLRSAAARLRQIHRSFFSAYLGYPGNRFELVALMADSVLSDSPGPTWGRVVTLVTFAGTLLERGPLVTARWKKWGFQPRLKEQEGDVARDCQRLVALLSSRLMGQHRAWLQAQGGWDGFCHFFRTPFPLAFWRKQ


Tests used:
Assay in all cases: BLI
[1] = target: T1, Bcl-w, biotinylated (C-terminal …)
[2] = target: T2, Mcl-1, biotinylated (C-terminal …)
[3] = target: T3, Bfl-1, biotinylated (C-terminal …)
[4] = target: Bcl-xL, biotinylated (C-terminal avi-6His) (human, UniProt Q07817-1 1-233, biotin (enzymatic, BirA))
[5] = target: T4, Bcl-B, biotinylated (C-terminal …)
[6] = target: Bcl-2, biotinylated (C-terminal avi-6His) (human, UniProt P10415 1-239, biotin (enzymatic, BirA))
Bcl-2, biotinylated (C-terminal avi-6His), sequence (P10415 1-207): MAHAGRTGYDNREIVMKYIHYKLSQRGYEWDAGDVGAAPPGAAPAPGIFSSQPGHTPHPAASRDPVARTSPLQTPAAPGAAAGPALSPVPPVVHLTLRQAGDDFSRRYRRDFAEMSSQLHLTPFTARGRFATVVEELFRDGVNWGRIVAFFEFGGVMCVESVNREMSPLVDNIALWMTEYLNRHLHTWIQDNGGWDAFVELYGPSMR

Bcl-xL, biotinylated (C-terminal avi-6His), sequence (Q07817 1-209): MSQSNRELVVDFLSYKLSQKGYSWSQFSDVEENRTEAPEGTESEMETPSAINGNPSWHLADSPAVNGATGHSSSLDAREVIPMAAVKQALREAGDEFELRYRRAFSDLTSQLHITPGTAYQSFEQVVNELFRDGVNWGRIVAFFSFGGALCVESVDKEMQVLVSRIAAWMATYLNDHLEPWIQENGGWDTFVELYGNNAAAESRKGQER

| Binder | Kd [1] [nM] | Kd [2] [nM] | Kd [3] [nM] | Kd [4] [nM] | Kd [5] [nM] | Kd [6] [nM] |
| --- | --- | --- | --- | --- | --- | --- |
| F-ECM04 (enriched combinatorial mutant of F-CDP01) (designed binder) ADPKKVLDKAKDQAENRVRELKQKLEELYKEARKLDLTQEMRKKLEVAALGAVLAAHGDILNAIMQAKEEADKLKKAGLVNSQQLDELKRRLEELKEEALRKASDYGKEFHLKRRY | 3800 | 300 | 1.1 | 540 | 4000 | – |
| F-CDP01 (Bfl-1-targeting computationally designed protein) (designed binder) ADPKKVLDKAKDQAENRVRELKQKLEELYKEARKLDLTQEMRKKLQYAAIGAMLAAIGDILNAIMQAKQEADKLKKAGLVNSQQLDELKRRLEELKEEALRKAHDYGSEFYLKLEY | – | 4.6 | 2 | 11 | 100000 | – |
| 2-CDP06 (Bcl-2-targeting Computationally Designed Protein) (designed binder) MADPKKVLDKAKDEAENRVRELKQKLEELYKEARKLDLTQEMRQELVDKARAASLQAIGDIFYAILRALAEAEKLKKAGLVNSQQLDELKRRLEELAEEARRKAEKLGDEFRLKLEYG | 1700 | > 50000 | > 50000 | 12000 | > 50000 | 9 |
| W-CDP03 (Bcl-w-targeting computationally designed protein) (designed binder) ADPKKVFDEAKDRAENNVRRLKQKLEELYKEARKKDLTQEEREKLKEKYKTAMAAAALAAIGDAFNALLKARKLHKNGQVNEQQLEELARRLQELAKEAFQKAKDYANEFEYKLEY | 8 | 57 | 500 | 7 | 410 | 30 |
| X-CDP07 (Bcl-xL-targeting computationally designed protein) (designed binder) ADPKKVLDKAKDRAENVVRKLKKELEELYKEARKLDLTQEMRDRIRLAAIAARIAAFGDIFHAIMEALEEARKLKKAGLVNSQQLDELKRRLEELDEEAAQRAEKLGKEFELKLEY | – | – | > 50000 | – | – | 4 |
| B-ECM01 (enriched combinatorial mutant of B-CDP01) (designed binder) ADPKKILDKAKDQVENRVRELKQELERLYKEARKLDLTQEMRRKLHVRYIAAMLKAIAAILNAIAQAENEADKLKKAGLVNSQQLDELRRRLEELTEEAAQKAHDYGREFQLKLEY | – | – | 2400 | 7800 | 80 | – |
| B-CDP01 (Bcl-B-targeting computationally designed protein) (designed binder) ADPKKVLDKAKDQAENRVRELKQELERLYKEARKLDLTQEMRRKLEWRYIAAMLKAIGDILNAIAQAENEADKLKKAGLVNSQQLDELRRRLEELAKEAARKAHDYGREFQLKLEY | 2000 | 0.46 | 520 | 20 | 8 | 17 |

Source: paper PMC5127641 (2016)
